The text below walks through data of PMC5687611.

Assay [1] has as its target L3B3-hPD-L1 phage clone (displayed on M13 phage) (human) (UniProt Q9NZQ7). Put plainly: ELISA; inhibition phage ELISA: phage displaying hPD-L1 variants incubated with 1.6 µM non-biotinylated soluble hPD-1 for 1 h before adding to plates with captured biotinylated hPD-1. A general note: An ELISA detects its analyte on a solid surface through an enzyme-linked reagent.
Assay [2] concerns the target L3C7-hPD-L1 phage clone (displayed on M13 phage) (human) (UniProt Q9NZQ7). Described as above.

Consider “soluble non-biotinylated hPD-1 (residues 33-150, C93S) (from UniProt Q15116 33-150) (domain or fragment)”, for which the inhibition rate at 1.6 µM soluble hPD-1 in assay [1] was 86.7%; in assay [2], 82.6%.
